Patent US20220098265A1 (MEDIMMUNE LIMITED, priority 2012, published 2022)
Numbered stars: 1 amine (or outer) side, 2 acyl side, 3 side chain; on linkers, the order of the positions; unused ones are H or OH. Side chains are listed from the residue outwards. Ends that are not written are not given here. * marks the point of attachment. γGlu = O=C(O)[C@H](CCC(=O)[*:2])N[*:1]; Palmitoyl = CCCCCCCCCCCCCCCC(=O)*

T1: human glucose-dependent insulinotropic peptide (gastric inhibitory polypeptide) receptor (human, UniProt P48546 22-466)
T1 sequence (looked up): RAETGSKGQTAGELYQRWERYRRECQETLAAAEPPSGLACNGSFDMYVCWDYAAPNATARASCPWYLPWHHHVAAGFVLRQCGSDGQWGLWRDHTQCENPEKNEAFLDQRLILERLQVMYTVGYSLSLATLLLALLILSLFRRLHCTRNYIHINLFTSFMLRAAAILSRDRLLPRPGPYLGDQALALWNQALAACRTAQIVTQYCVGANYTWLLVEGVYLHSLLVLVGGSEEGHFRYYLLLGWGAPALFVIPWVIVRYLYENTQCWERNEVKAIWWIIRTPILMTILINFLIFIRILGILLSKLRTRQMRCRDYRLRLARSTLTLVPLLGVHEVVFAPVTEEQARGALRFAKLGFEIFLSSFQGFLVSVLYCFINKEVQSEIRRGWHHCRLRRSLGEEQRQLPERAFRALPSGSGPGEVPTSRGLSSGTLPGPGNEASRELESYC

B1: g315 (peptide)
peptide: HSQGTFTSDYSKYLDSRRAQDFVQWLVAGGGGGG-NH2
B2: g316 (peptide)
peptide: HSQGTFTSDYSKYLDSRRAQDFVQWLVAGGSSGGSS-NH2
B3: g327 (peptide)
peptide: HSQGTFTSDYSKYLDSRRAQDFVQWLVAGGGGGGK([γGlu-Palmitoyl])-NH2
modifications: N-terminus assumed
SMILES: CCCCCCCCCCCCCCCC(=O)N[C@@H](CCC(=O)NCCCC[C@H](NC(=O)CNC(=O)CNC(=O)CNC(=O)CNC(=O)CNC(=O)CNC(=O)[C@H](C)NC(=O)[C@@H](NC(=O)[C@H](CC(C)C)NC(=O)[C@H](Cc1c[nH]c2ccccc12)NC(=O)[C@H](CCC(N)=O)NC(=O)[C@@H](NC(=O)[C@H](Cc1ccccc1)NC(=O)[C@H](CC(=O)O)NC(=O)[C@H](CCC(N)=O)NC(=O)[C@H](C)NC(=O)[C@H](CCCNC(=N)N)NC(=O)[C@H](CCCNC(=N)N)NC(=O)[C@H](CO)NC(=O)[C@H](CC(=O)O)NC(=O)[C@H](CC(C)C)NC(=O)[C@H](Cc1ccc(O)cc1)NC(=O)[C@H](CCCCN)NC(=O)[C@H](CO)NC(=O)[C@H](Cc1ccc(O)cc1)NC(=O)[C@H](CC(=O)O)NC(=O)[C@H](CO)NC(=O)[C@@H](NC(=O)[C@H](Cc1ccccc1)NC(=O)[C@@H](NC(=O)CNC(=O)[C@H](CCC(N)=O)NC(=O)[C@H](CO)NC(=O)[C@@H](N)Cc1c[nH]cn1)[C@@H](C)O)[C@@H](C)O)C(C)C)C(C)C)C(N)=O)C(=O)O
B4: g322 (peptide)
peptide: HSQGTFTSDYSKYLDSRRAQDFVQWLVAGGKNNRNNIAK(Palmitoyl)-NH2
modifications: N-terminus assumed
SMILES: CCCCCCCCCCCCCCCC(=O)NCCCC[C@H](NC(=O)[C@H](C)NC(=O)[C@@H](NC(=O)[C@H](CC(N)=O)NC(=O)[C@H](CC(N)=O)NC(=O)[C@H](CCCNC(=N)N)NC(=O)[C@H](CC(N)=O)NC(=O)[C@H](CC(N)=O)NC(=O)[C@H](CCCCN)NC(=O)CNC(=O)CNC(=O)[C@H](C)NC(=O)[C@@H](NC(=O)[C@H](CC(C)C)NC(=O)[C@H](Cc1c[nH]c2ccccc12)NC(=O)[C@H](CCC(N)=O)NC(=O)[C@@H](NC(=O)[C@H](Cc1ccccc1)NC(=O)[C@H](CC(=O)O)NC(=O)[C@H](CCC(N)=O)NC(=O)[C@H](C)NC(=O)[C@H](CCCNC(=N)N)NC(=O)[C@H](CCCNC(=N)N)NC(=O)[C@H](CO)NC(=O)[C@H](CC(=O)O)NC(=O)[C@H](CC(C)C)NC(=O)[C@H](Cc1ccc(O)cc1)NC(=O)[C@H](CCCCN)NC(=O)[C@H](CO)NC(=O)[C@H](Cc1ccc(O)cc1)NC(=O)[C@H](CC(=O)O)NC(=O)[C@H](CO)NC(=O)[C@@H](NC(=O)[C@H](Cc1ccccc1)NC(=O)[C@@H](NC(=O)CNC(=O)[C@H](CCC(N)=O)NC(=O)[C@H](CO)NC(=O)[C@@H](N)Cc1c[nH]cn1)[C@@H](C)O)[C@@H](C)O)C(C)C)C(C)C)[C@@H](C)CC)C(N)=O
B5: g747 (peptide)
peptide: HSQGTFTSDYSKYLDSRRAQDFVQWLEAGGK([γGlu-Palmitoyl])-NH2
modifications: N-terminus assumed
SMILES: CCCCCCCCCCCCCCCC(=O)N[C@@H](CCC(=O)NCCCC[C@H](NC(=O)CNC(=O)CNC(=O)[C@H](C)NC(=O)[C@H](CCC(=O)O)NC(=O)[C@H](CC(C)C)NC(=O)[C@H](Cc1c[nH]c2ccccc12)NC(=O)[C@H](CCC(N)=O)NC(=O)[C@@H](NC(=O)[C@H](Cc1ccccc1)NC(=O)[C@H](CC(=O)O)NC(=O)[C@H](CCC(N)=O)NC(=O)[C@H](C)NC(=O)[C@H](CCCNC(=N)N)NC(=O)[C@H](CCCNC(=N)N)NC(=O)[C@H](CO)NC(=O)[C@H](CC(=O)O)NC(=O)[C@H](CC(C)C)NC(=O)[C@H](Cc1ccc(O)cc1)NC(=O)[C@H](CCCCN)NC(=O)[C@H](CO)NC(=O)[C@H](Cc1ccc(O)cc1)NC(=O)[C@H](CC(=O)O)NC(=O)[C@H](CO)NC(=O)[C@@H](NC(=O)[C@H](Cc1ccccc1)NC(=O)[C@@H](NC(=O)CNC(=O)[C@H](CCC(N)=O)NC(=O)[C@H](CO)NC(=O)[C@@H](N)Cc1c[nH]cn1)[C@@H](C)O)[C@@H](C)O)C(C)C)C(N)=O)C(=O)O
B6: g326 (peptide)
peptide: HSQGTFTSDYSKYLDSRRAQDFVQWLVAGGGGGGK(Palmitoyl)-NH2
modifications: N-terminus assumed
SMILES: CCCCCCCCCCCCCCCC(=O)NCCCC[C@H](NC(=O)CNC(=O)CNC(=O)CNC(=O)CNC(=O)CNC(=O)CNC(=O)[C@H](C)NC(=O)[C@@H](NC(=O)[C@H](CC(C)C)NC(=O)[C@H](Cc1c[nH]c2ccccc12)NC(=O)[C@H](CCC(N)=O)NC(=O)[C@@H](NC(=O)[C@H](Cc1ccccc1)NC(=O)[C@H](CC(=O)O)NC(=O)[C@H](CCC(N)=O)NC(=O)[C@H](C)NC(=O)[C@H](CCCNC(=N)N)NC(=O)[C@H](CCCNC(=N)N)NC(=O)[C@H](CO)NC(=O)[C@H](CC(=O)O)NC(=O)[C@H](CC(C)C)NC(=O)[C@H](Cc1ccc(O)cc1)NC(=O)[C@H](CCCCN)NC(=O)[C@H](CO)NC(=O)[C@H](Cc1ccc(O)cc1)NC(=O)[C@H](CC(=O)O)NC(=O)[C@H](CO)NC(=O)[C@@H](NC(=O)[C@H](Cc1ccccc1)NC(=O)[C@@H](NC(=O)CNC(=O)[C@H](CCC(N)=O)NC(=O)[C@H](CO)NC(=O)[C@@H](N)Cc1c[nH]cn1)[C@@H](C)O)[C@@H](C)O)C(C)C)C(C)C)C(N)=O
B7: g321 (peptide)
peptide: HSQGTFTSDYSKYLDSRRAQDFVQWLVAGGKNNRNNIAK-NH2
B8: g320 (peptide)
peptide: HSQGTFTSDYSKYLDSRRAQDFVQWLVAGGPSSGAPPPSK(Palmitoyl)-NH2

Key:
Test in all cases: cell-based or functional assay
human glucagon receptor = human glucagon receptor (human, UniProt P47871 26-477)
Sequence of human glucagon receptor (P47871 26-477): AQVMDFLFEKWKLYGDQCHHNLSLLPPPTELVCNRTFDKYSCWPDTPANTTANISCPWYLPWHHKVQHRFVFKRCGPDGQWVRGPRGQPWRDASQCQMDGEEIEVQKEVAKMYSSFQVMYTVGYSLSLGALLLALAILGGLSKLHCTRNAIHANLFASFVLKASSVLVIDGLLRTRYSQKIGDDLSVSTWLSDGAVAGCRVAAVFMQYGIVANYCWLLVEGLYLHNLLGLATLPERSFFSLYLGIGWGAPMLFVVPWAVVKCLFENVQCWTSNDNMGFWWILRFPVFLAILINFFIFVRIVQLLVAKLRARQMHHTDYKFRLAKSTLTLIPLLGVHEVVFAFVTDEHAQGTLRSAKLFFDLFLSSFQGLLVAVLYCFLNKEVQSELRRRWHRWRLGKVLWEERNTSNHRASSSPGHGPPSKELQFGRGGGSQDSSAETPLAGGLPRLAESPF

human GLP-1 receptor = human GLP-1 receptor (human, UniProt P43220 24-463)
[1] = target: T1, human glucose-dependent insulinotropic …

| Binder | cAMP EC50 (assay 1) (human glucagon receptor) | cAMP EC50 (assay 1) (human GLP-1 receptor) | cAMP EC50 (assay 1) [1] |
| --- | --- | --- | --- |
| B1 | 5.04 pM | 27.3 pM | 19.7 nM |
| B2 | 10.6 pM | 31.4 pM | 3.65 nM |
| B3 | 2.32 pM | 19.3 pM | 12.8 nM |
| B4 | 3.55 pM | 10.6 pM | 1.72 nM |
| B5 | 94.2 pM | 3160 pM | 1040 nM |
| B6 | 2.82 pM | 24.7 pM | 12.6 nM |
| B7 | 27.9 pM | 27.2 pM | 6.41 nM |
| B8 | 3.2 pM | 9.38 pM | 1.01 nM |
